The text below walks through data of patent US20250145724A1.

For experiment [1], the target named is Adenosine A2A receptor (human) (human) (UniProt P29274). Put plainly: flow cytometry titration 0.05-100 nM IgG, MFI; grey curve and grey number taken as HEK293-A2a cells, black (ND) as parent cells, no legend on the sheet. For orientation: In flow cytometry, cells or beads pass a laser one at a time.
Experiment [2] has the same target. Put plainly: flow cytometry, control antibody, HEK293-A2a cells (A2a Singlets); Parent Singlets median 230; same picture as FIG. 16O.
Experiment [3] has the same target. Put plainly: flow cytometry, control antibody, HEK293-A2a cells (A2a Singlets); Parent Singlets median 230.
Experiment [4] has the same target. Put plainly: flow cytometry titration 0.05-100 nM IgG, MFI; grey curve and grey number taken as HEK293-A2a cells, black (ND) as parent cells; same data as FIG. 17H.
Experiment [5] has the same target. The experiment is described as follows: cell-based or functional assay.

Sequence of Adenosine A2A receptor (human) (human) (P29274 whole entry): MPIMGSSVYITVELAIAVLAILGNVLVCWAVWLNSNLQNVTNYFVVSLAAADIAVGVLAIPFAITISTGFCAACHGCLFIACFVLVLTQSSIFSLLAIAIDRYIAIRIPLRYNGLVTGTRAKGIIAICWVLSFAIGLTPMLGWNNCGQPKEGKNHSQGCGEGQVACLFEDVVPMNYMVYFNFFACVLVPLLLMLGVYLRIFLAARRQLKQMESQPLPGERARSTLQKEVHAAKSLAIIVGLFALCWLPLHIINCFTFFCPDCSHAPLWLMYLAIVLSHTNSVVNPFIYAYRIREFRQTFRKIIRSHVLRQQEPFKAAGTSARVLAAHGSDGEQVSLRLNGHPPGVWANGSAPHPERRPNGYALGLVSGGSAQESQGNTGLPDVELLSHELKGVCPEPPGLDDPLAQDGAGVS

A word on the EC50: it is the concentration at which the effect is half-maximal. On to “Human Adenosine A2aR monoclonal (MAB9497) (antibody)”, for which the half-maximal effective concentration (EC50) in experiment [1] and in experiment [4] was 21.7 nM throughout. The Median : RL1-H in experiment [2] and in experiment [3] was 7500 each time.
With R&D control antibody, in experiment [5], the Absolute IC50, A2A cAMP antagonist titration was determined as 9.43; the Absolute IC50, LANCE allosteric cAMP assay (titrated IgG, fixed NECA) came to 9.43 nM; the Absolute IC50, cAMP allosteric A2A Perkin Elmer assay turned out to be 0.513 nM.
